Assay results taken from the Human Domainome abundance scans (Beltran et al. 2025).
± gives the uncertainty stated by the source.

B1: 3'-5' exoribonuclease 1, residues 65 to 114; numbered along this chain, Q8IV48 (parent)
chain: VYKEIAITNGCINRMSKEELRAKLSEFKLETRGVKDVLKKRLKNYYKKQK

Variants of: B1
Test: abundance fitness (aPCA) (normalised: wild type 0, dead -1); higher = more abundant; growth selection in yeast, the domain comes from the species named
Conditions: Homo sapiens

In order of falling abundance fitness:
1. VYKEIAITNGCINRMSKEELRAKLSEFKLEHRGVKDVLKKRLKNYYKKQK  0.143 ± 0.035
2. VYKEIAITNGCINRMSKEELRAKLSEFKLEYRGVKDVLKKRLKNYYKKQK  0.121 ± 0.04
3. VYKEIAITNGCINRMSKEELRAKLSEFKLETRGRKDVLKKRLKNYYKKQK  0.11 ± 0.05
4. VYKEIAITNGCINRMSKEELRAKLSEFKLETRGKKDVLKKRLKNYYKKQK  0.079 ± 0.08
5. VYKEIAITNGCINRMSKEELRAKLSEFKLETRGHKDVLKKRLKNYYKKQK  0.054 ± 0.051
6. VYKEIAITNGCINRMSKEELRAKLSEFKLETRGTKDVLKKRLKNYYKKQK  0.046 ± 0.051
7. VYKEIAITNGCINRMSKEELRAKLSEFKLETRGNKDVLKKRLKNYYKKQK  0.039 ± 0.055
8. VYKEIAITNGCINRMSKEELRAKLSEFKLEFRGVKDVLKKRLKNYYKKQK  0.038 ± 0.037
9. VYKEIAITNGCINRMSKEELRAKLSEFKLEKRGVKDVLKKRLKNYYKKQK  -0.05 ± 0.054
10. VYKEIAITNGCINRMSKEELRAKLSEFKLETRGIKDVLKKRLKNYYKKQK  -0.064 ± 0.042
11. VYKEIAITNGCINRMSKEELRAKLSEFKLETRGCKDVLKKRLKNYYKKQK  -0.078 ± 0.059
12. VYKEIAITNGCINRMSKEELRAKLSEFKLESRGVKDVLKKRLKNYYKKQK  -0.088 ± 0.033
13. VYKEIAITNGCINRMSKEELRAKLSEFKLEVRGVKDVLKKRLKNYYKKQK  -0.106 ± 0.041
14. VYKEIAITNGCINRMSKEELRAKLSEFKLETRGSKDVLKKRLKNYYKKQK  -0.109 ± 0.043
15. VYKEIAITNGCINRMSKEELRAKLSEFKLEPRGVKDVLKKRLKNYYKKQK  -0.114 ± 0.035
16. VYKEIAITNGCINRMSKEELRAKLSEFKLENRGVKDVLKKRLKNYYKKQK  -0.115 ± 0.038
17. VYKEIAITNGCINRMSKEELRAKLSEFKLEIRGVKDVLKKRLKNYYKKQK  -0.134 ± 0.035
18. VYKEIAITNGCINRMSKEELRAKLSEFKLEQRGVKDVLKKRLKNYYKKQK  -0.156 ± 0.045
19. VYKEIAITNGCINRMSKEELRAKLSEFKLEWRGVKDVLKKRLKNYYKKQK  -0.161 ± 0.071
20. VYKEIAITNGCINRMSKEELRAKLSEFKLETRGAKDVLKKRLKNYYKKQK  -0.177 ± 0.051
21. VYKEIAITNGCINRMSKEELRAKLSEFKLEARGVKDVLKKRLKNYYKKQK  -0.198 ± 0.042
22. VYKEIAITNGCINRMSKEELRAKLSEFKLETKGVKDVLKKRLKNYYKKQK  -0.209 ± 0.047
23. VYKEIAITNGCINRMSKEELRAKLSEFKLETRGGKDVLKKRLKNYYKKQK  -0.213 ± 0.05
24. VYKEIAITNGCINRMSKEELRAKLSEFKLETRGLKDVLKKRLKNYYKKQK  -0.213 ± 0.044
25. VYKEIAITNGCINRMSKEELRAKLSEFKLETRGQKDVLKKRLKNYYKKQK  -0.241 ± 0.1
26. VYKEIAITNGCINRMSKEELRAKLSEFKLETRGYKDVLKKRLKNYYKKQK  -0.244 ± 0.057
27. VYKEIAITNGCINRMSKEELRAKLSEFKLETRGFKDVLKKRLKNYYKKQK  -0.245 ± 0.048
28. VYKEIAITNGCINRMSKEELRAKLSEFKLEMRGVKDVLKKRLKNYYKKQK  -0.285 ± 0.055
29. VYKEIAITNGCINRMSKEELRAKLSEFKLETTGVKDVLKKRLKNYYKKQK  -0.292 ± 0.035
30. VYKEIAITNGCINRMSKEELRAKLSEFKLETRGDKDVLKKRLKNYYKKQK  -0.293 ± 0.077
31. VYKEIAITNGCINRMSKEELRAKLSEFKLETSGVKDVLKKRLKNYYKKQK  -0.318 ± 0.033
32. VYKEIAITNGCINRMSKEELRAKLSEFKLETHGVKDVLKKRLKNYYKKQK  -0.319 ± 0.034
33. VYKEIAITNGCINRMSKEELRAKLSEFKLERRGVKDVLKKRLKNYYKKQK  -0.327 ± 0.042
34. VYKEIAITNGCINRMSKEELRAKLSEFKLETRGWKDVLKKRLKNYYKKQK  -0.352 ± 0.077
35. VYKEIAITNGCINRMSKEELRAKLSEFKLETRGPKDVLKKRLKNYYKKQK  -0.379 ± 0.055
36. VYKEIAITNGCINRMSKEELRAKLSEFKLETAGVKDVLKKRLKNYYKKQK  -0.383 ± 0.036
37. VYKEIAITNGCINRMSKEELRAKLSEFKLETGGVKDVLKKRLKNYYKKQK  -0.394 ± 0.039
38. VYKEIAITNGCINRMSKEELRAKLSEFKLETQGVKDVLKKRLKNYYKKQK  -0.396 ± 0.043
39. VYKEIAITNGCINRMSKEELRAKLSEFKLETDGVKDVLKKRLKNYYKKQK  -0.399 ± 0.049
40. VYKEIAITNGCINRMSKEELRAKLSEFKLETNGVKDVLKKRLKNYYKKQK  -0.409 ± 0.037
41. VYKEIAITNGCINRMSKEELRAKLSEFKLETCGVKDVLKKRLKNYYKKQK  -0.459 ± 0.04
42. VYKEIAITNGCINRMSKEELRAKLSEFKLETVGVKDVLKKRLKNYYKKQK  -0.471 ± 0.036
43. VYKEIAITNGCINRMSKEELRAKLSEFKLETWGVKDVLKKRLKNYYKKQK  -0.478 ± 0.051
44. VYKEIAITNGCINRMSKEELRAKLSEFKLETFGVKDVLKKRLKNYYKKQK  -0.521 ± 0.042
45. VYKEIAITNGCINRMSKEELRAKLSEFKLETRGEKDVLKKRLKNYYKKQK  -0.553 ± 0.11
46. VYKEIAITNGCINRMSKEELRAKLSEFKLETEGVKDVLKKRLKNYYKKQK  -0.572 ± 0.067
47. VYKEIAITNGCINRMSKEELRAKLSEFKLETIGVKDVLKKRLKNYYKKQK  -0.628 ± 0.037
48. VYKEIAITNGCINRMSKEELRAKLSEFKLELRGVKDVLKKRLKNYYKKQK  -0.639 ± 0.035
49. VYKEIAITNGCINRMSKEELRAKLSEFKLETMGVKDVLKKRLKNYYKKQK  -0.646 ± 0.051
50. VYKEIAITNGCINRMSKEELRAKLSEFKLETLGVKDVLKKRLKNYYKKQK  -0.703 ± 0.035
51. VYKEIAITNGCINRMSKEELRAKLSEFKLEGRGVKDVLKKRLKNYYKKQK  -0.791 ± 0.056
52. VYKEIAITNGCINRMSKEELRAKLSEFKLETPGVKDVLKKRLKNYYKKQK  -0.964 ± 0.042
